Results on three molecules are retold here after PMC6160384, “TDP-43 regulates cancer-associated microRNAs”.

The target of this data set is TDP-43 (His-TDP-43 wild type) (UniProt Q13148 1-414). Description: EMSA; EMSA: LightShift Chemiluminescent RNA EMSA Kit (Thermo), per manufacturer; buffer, salt, pH and temperature not stated. The note with it: protein: recombinant; tags: His tag; text says C-terminal (pEASY-E2); label: biotin.
TDP-43 (His-TDP-43 wild type), sequence (Q13148 whole entry): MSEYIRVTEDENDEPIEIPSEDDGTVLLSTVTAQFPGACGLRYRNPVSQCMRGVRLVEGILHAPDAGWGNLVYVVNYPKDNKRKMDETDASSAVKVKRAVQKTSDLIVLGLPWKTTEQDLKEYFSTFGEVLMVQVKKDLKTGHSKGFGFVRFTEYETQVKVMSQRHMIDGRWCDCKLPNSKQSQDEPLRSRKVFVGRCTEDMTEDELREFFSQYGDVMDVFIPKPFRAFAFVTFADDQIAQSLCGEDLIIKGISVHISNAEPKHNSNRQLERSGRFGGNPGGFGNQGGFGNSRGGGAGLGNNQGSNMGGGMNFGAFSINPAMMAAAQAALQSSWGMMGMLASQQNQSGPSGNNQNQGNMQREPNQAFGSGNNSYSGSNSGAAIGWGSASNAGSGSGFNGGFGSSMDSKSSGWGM

B1: miR-500a-3p (ssRNA)
RNA: AUGCACCUGGGCAAGGAUUCUG
With B1, the binding result is listed as “binds”.

B2: miR-574-3p (ssRNA)
RNA: CACGCUCAUGCACACACCCACA
In the case of B2, the binding result was “no binding”.

B3: miR-423-3p (ssRNA)
RNA: AGCUCGGUCUGAGGCCCCUCAGU
With B3, the binding result is “binds”.
